Data as given in the DeepSol protein solubility set.

Experiment: soluble on expression in E. coli; label from the status in PepcDB or PDB records

Row | Sequence | soluble on expression in E. coli
1 | GEGLGEEVIEEVYEELLSSFDTEYGGFSGAPKFPTPHKISFLLRYWRRSRNPEALHMAEYTLDKMRRGGIYDHLGSGFHRYSTDSMWLLPHFEKMLYDQALTAIAYTEAYQVTGKDLYKETAEGILDYVLRDLTSPEGGFYCGEDADVEREEGKYYLWTLEEIRSILDPEDSELIIKMFNLREEGNFEEEIRGRETGTNLFYMARSPGSLAAKMKIPVEEVEKKVKAAREKLLKARYERKRPSLDDKILTDWNGLMIAAFAKGYQVFGEQRYLKAAEKAADFILMALYSPGDGLLHRYRDGVAGISGTSDDYAFLIHGLLELYEAGFKMRYLKAAVSLNSELLECFWDPVNGGLYFTANDSEALIFRKKE | not soluble
2 | GETSVPPGSALVGPSCVMDDFRDPQRWKECAKQGKMPCYFDLIEENVYLTERKKNKSHRDIKRMQCECTPLSKDERAQGEIACGEDCLNRLLMIECSSRCPNGDYCSNRRFQRKQHADVEVILTEKKGWGLRAAKDLPSNTFVLEYCGEVLDHKEFKARVKEYARNKNIHYYFMALKNDEIIDATQKGNCSRFMNHSCEPNCETQKWTVNGQLRVGFFTTKLVPSGSELTFDYQFQRYGKEAQKCFCGSANCRGYLGGENRVSIRAAGGKMKKERSRK | soluble
3 | GGCYERIFAVPQQERTSLRVVTALAHGCDLVITRAGPTPRTYTPLQTQRFRNSLRSDAGCVIMMGDHVVSPAARLASAVVGYHGIGKGTGRIKAVEITVTGIAKGFYRTSRVIVGKHIAPAAEKTTMKVV | not soluble
4 | GGQIVHTETTEVVLCGDPLSGFGLQLQGGIFATETLSSPPLVCFIEPDSPAERCGLLQVGDRVLSINGIATEDGTMEEANQLLRDAALAHKVVLEVEFD | soluble
5 | GGSCFKCGKKGHFAKNCHEHAHNNAEPKVPGLCPRCKRGKHWANECKSKTDNQGNPIPPH | soluble
6 | GGVRPATNAYGGGSTTDNPNRFMYYPSHPVPGTQGGVVLAAYSWSDDAARWDSFDDAERYGYALENLQSVHGRRIEVFYTGAGQTQSWLRDPYACGEAAVYTPHQMTAFHLDVVRPEGPVYFAGEHVSLKHAWIEGAVETAVRAAIAVNEAPVGDTGVTAAAGRRGAAAATEPMREEALTS | soluble
7 | GHHHHHHAIAENLYFQSAQYKGAASEAGRAMHLMKKREKQREQMEQMKQRIAEENIMKSNIDKKFSAHYDAVEAELKSSTVGLVTLNDMKAKQEALVKEREKQLAKKEQSKELQMKLEKLREKERKKEAKRKISSLSFTLEEEEEGGEEEEEAAMYEEEMEREEITTKKRKLGKNPDVDTSFLPDRDREEEENRLREELRQEWEAKQEKIKSEEIEITFSYWDGSGHRRTVKMRKGNTMQQFLQKALEILRKDFSELRSAGVEQLMYIKEDLIIPHHHSFYDFIVTKARGKSGPLFNFDVHDDVRLLSDATVEKDESHAGKVVLRSWYEKNKHIFPASRWEPYDPEKKWDKYTIR | not soluble
8 | GHHHHHHLEKCVFVTVGTTSFDDLIACVSAPDSLQKIESLGYNRLILQIGRGTVVPEPFSTESFTLDVYRYKDSLKEDIQKADLVISHAGAGSCLETLEKGKPLVVVINEKLMNNHQLELAKQLHKEGHLFYCTCSTLPGLLQSMDLSTLKCYPPGQPEKFSAFLDKVVGLQK | not soluble
9 | GHHHHHHMKVGYVAIVGKPNVGKSTLLNNLLGTKVSIISPKAGTTRMRVLGVKNIPNEAQIIFLDTPGIYEPKKSDVLGHSMVEIAKQSLEEADVILFMIDATEGWRPRDEEIYQNFIKPLNKPVIVVINKIDKIGPAKNVLPLIDEIHKKHPELTEIVPISALKGANLDELVKTILKYLPEGEPLFPEDMITDLPLRLLAAEIVREKAMMLTREEVPTSIAVKINEIKPGDANPNMLVIKGEIIVDRENLKPIIIGKKGQRLKEIGKRARQELELILGRPVYLELWVKVVPDWRRRPEYVRLFGYAL | soluble
10 | GHMAGGTKRLPRAVREQQMLDAAVDVFSDRGFHETSMDAIAAKAEISKPMLYLYYGSKDELFAACIQREGLRFVEALAPAGDPGLSPREQLRRALEGFLGFVGKHRKSWMVLYRQAMGQQAFVGSVQSSRDRLIELTAHLLESSTKDPEPGQDFELIAIALVGAGEAVADRVAGGEIEVDAAADLLESLAWRGLAGKKKPEGS | soluble
11 | GHMASVTRAVFGELPSGGGTVEKFQLQSDLLRVDIISWGCTITALEVKDRQGRASDVVLGFAELEGYLQKQPYFGAVIGRVANRIAKGTFKVDGKEYHLAINKEPNSLHGGVRGFDKVLWTPRVLSNGVQFSRISPDGEEGYPGELKVWVTYTLDGGELIVNYRAQASQATPVNLTNHSYFNLAGQASPNINDHEVTIEADTYLPVDETLIPTGEVAPVQGTAFDLRKPVELGKHLQDFHLNGFDHNFCLKGSKEKHFCARVHHAASGRVLEVYTTQPGVQFYTGNFLDGTLKGKNGAVYPKHSGFCLETQNWPDAVNQPRFPPVLLRPGEEYDHTTWFKFSVA | soluble
12 | GHMIARGKFRSLTLINWNGFFARTFDFDELVTTLSGGNGAGKSTTMAGFVTALIPDLTLLNFRNTTEAGSTSSSRDKGLYGKLKAGVCYAVLETVNSRAQRIITGVRLQQIAGRDKKVDIRPFSLQNVPMTDSVISLFTEQVANKARVLSLNDLKEKFEETAVTFKPYHSITDYHSFMFDLGILPKRLRSSSDRNKFYKLIEASLYGGISSVITKSLRDYLLPENSGVRQAFQDMEAALRENSGGSGGSISAESVANILRKTIQREQNRILQLNQGLQNIAFGQVKGVRLVVNIRDTHSILLNALSDQHEQHKDLFESQKLSFSEALAMLYKRINPHIELGQRMPQTIGEELLDYRNYLDLEVETLRGAYGWMRAESSALSTGEAIGTGMSILLMVVQSWEEESRRMRAKDILPCRLLFLDQAARLDAMSINTLFELCERLDMQLLIAAPENISPERGTTYKLVRKILANQEYVHVVGLKGFG | soluble
13 | GHMSESREARLIIFHAGSLSIPLSQVEEKFTKYAQEKLGVKVTFQDEASGSVKAVRKVTDLKKRADIVAVADYTLIPQLMIPNYTDFYVLFATNEIVIAFTNKSKYADEMLKNPDKWYEILSRPDVSFGFSDPNQDPCGYRSVMVMKLAELYYGRPIFKELVEKTTNIYSNGTRIYAPKEIIIKDKRVIMRPKETDLVGLVESGSLDYIFIYKSVAKQHHLSYITLPDDINLGDFNKADFYGRVSITLGSTGKTIKAKPIVYGITVLKNAPNRELAIEFLRFLLGNEGRKIFEDNYQEFLSPPVAFGNVPPEIRRLVEVK | soluble
14 | GIYQHFSIEDRPFLDKGMEWIKKVEDSYAPFLTPFINPHQEKLLKILAKTYGLACSSSGEFVSSEYVRVLLYPDYFQPEFSDFEISLQEIVYSNKFEYLTHAKILGTVINQLGIERKLFGDILVDEERAQIMINQQFLLLFQDGLKKIGRIPVSLEERPFTEKID | soluble
15 | GKDWNWNVGGVLGYNKNKVTYVNVKAPAIFLQFDYPAAYPRVGVPYNAIYGYLWAGLDSKGQPQVYDSEGNIHVSSSPQKVEDAVYLGTSVPVYSGAINTNLRYKNWELAAQLLFEGGHKMRNTNIAYPGLGVTSKDVSKRWRQPGDEAYTDVPRYVPSESKDYNSYSSDLYSKASIHVLDADNWRLKNLSVTYHVPASVCQKFYVKNARIMLGMENVFTLAKSRDVKWMLGGYSKPNYLCNVNLNF | not soluble
16 | GKLKKKGYLRIVTTQGSLNIELHADMAPRACDSFLRLCAVKYFDDTIFHRCIRNFMIQGGRAELRQPSKKKEVQQSPRSISGFPGGAPFEDEFDNRLVHQGIGVLSMANDGKHSNLSEFFITFKSCEHLNNKHTIFGRVVGGLDVLRQWEKLETDKKDKPLKPPKVEEIIVFKNPFEDARKEMEDEKREEEEKEKKKLENA | soluble
17 | GKQKQYLFEARDITSRKLMEDKLYQRESSLRNYYEQQPVMMVTLDSHNRIQEVNRFAQLLLGYEPIEMLGHRLREFYLDDKALFPRQVLLQPSHQVHDVWRREIEYRHADGHSVWVRENIRPLNDSD | not soluble
18 | GKSIFDKLWDRHVITGKEGEPQLMYVDQHYIHEVTSPQAFQGLRDAGRKVRRPDLTFGTFDHNVPTVNIYDIRDVISKAQMDALARNVIEFNIPHADHGSENQGIVHMVGPETGRTQPGKFIVCGDSHTATHGAFGAIGFGIGTTEVEHVFATQTIWQVKPKK | not soluble
19 | GMADKTGTPHPLTEPGVWIERIGGRVFPPHLPALFLDRDGTINVDTDYPSDPAEIVLRPQMLPAIATANRAGIPVVVVTNQSGIARGYFGWSAFAAVNGRVLELLREEGVFVDMVLACAYHEAGVGPLAIPDHPMRKPNPGMLVEAGKRLALDLQRSLIVGDKLADMQAGKRAGLAQGWLVDGEAAVQPGFAIRPLRDSSELGDLLAAIETLGRDNRS | soluble
20 | GMAEDQTVLAIDIGGSHVKIGLSTDGEERKVESGKTMTGPEMVAAVTAMAKDMTYDVIAMGYPGPVVHNKPLREPVNLGEGWVGYDYEGAFGRPVRIVNDALMQAIGSYNGGRMLFLGLGTGLGAAMIVENVAQPMEIAHLPYRKGKTYEHYVSEAYREKKGNAKWQKRVQDVVERLSAALEPDEVVIGGGNVERLENLPPKCRRGDNAMAFEGGFRLWKNADLIV | soluble
21 | GMALTPDQMPDRAEVVFTCNGKAVGKMRNELDVAMVKPFEERFALATDEGAFHGGDASAPPPLALFIAGLTGCVMTQIRAFAKRLKVTVTDLDVECRVVWDWAKAGPVYETGPKSFEIDIILHSPDPIEAQQALIEAAKKGCFLEQTLGQANTIRHRLKVGDTFIDA | soluble
22 | GMATNSSTEQSLTKKVWNLATTLAGQGIGFTDYITQLTYLLFLKMDAENVEMFGEESAIPTGYQWADLIAFDGLDLVKQYEETLKLLSELDNLIGTIYTKAQNKIDKPVYLKKVITMIDEEQWLIMDGDVKGAIYESILEKNGQDKKSGAGQYFTPRPLIQAMVDCINPQMGETVCDPACGTGGFLLTAYDYMKGQSASKEKRDFLRDKALHGVDNTPLVVTLASMNLYLHGIGTDRSPIVCEDSLEKEPSTLVDVILANPPFGTRPAGSVDINRPDFYVETKNNQLNFLQHMMLMLKTGGRAAVVLPDNVLFEAGAGETIRKRLLQDFNLHTILRLPTGIFYAQGVKANVLFFSKGQPTKEIWFYDYRTDIKHTLATNKLERHHLDDFVSCYNNRVEIYDAENNPQGRWRKYPVDEIIARDKTSLDITWIKPGGEVDDRSLAEL | soluble
23 | GMDIINNRRSIRNYKGKKVEKEKIEKLLRAAMQAPSAGNQQPWEFIVLEDRENIDKLSNFSKYANSLKTAPLAIVLLADEEKMKISEMWEQDMAAAAENILLEAAYLDLGAVWLGAQPIEERVKNLKEMFNLKSNIKPFCVISVGYPENSENKFIDRFDAKRIHIEKY | soluble
24 | GMDKQAILDNIHQTWQEEANAISRLPEVTSEEALVKTVEKIAECTGKIVVAGCGTSGVAAKKLVHSFNCIERPAVFLTPSDAVHGTLGVLQKEDILILISKGGNTGELLNLIPACKTKGSTLIGVTENPDSVIAKEADIFFPVSVSKEPDPFNMLATASTMAVIASFDAVIVCLMTYMNYTKEQFSVIHPGGAVGNKLLNK | soluble
25 | GMENLGDRLEVVAELSLAPGNITLTPDGRLFLSLHQFYQPEMQVAELTQDGLIPFPPQSGNAIITFDTVLGIKSDGNGIVWMLDNGNQSKSVPKLVAWDTLNNQLSRVIYLPPPITLSNSFVNDLAVDLIHNFVYISDPAPDDKAALIRVDLQTGLAARVLQGYPGIAPEDIDLVIDGVPVQIGQPDGTVIRPHLGVNGIVLDAENEWLYLSPMHSTSMYRIKSADLSNLQLTDAELGSKIERYSEKPICDGISIDKDHNIYVGDLAHSAIGVITSADRAYKLLVTDEKLSWTDSFNFGSDGYLYFDCNQLHHSAPLNAGENISAPPYYIFRLKPLAAGIVGR | soluble
